From patent US20240400703A1 (Genmab, published 2024)
Changes are numbered by the printed parent chain. In names and notes the source's numbering stands.

Tests used:
[1] = target: T1, human OX40 with mouse CRD2 (human with mouse CRD2, UniProt P43489 29-277); test: flow cytometry, transfected ExpiCHO-S cells, gMFI (PE)
T1 construct: on ExpiCHO-S cells; also called OX40-CRD2mm; Shuffle 2
T1 chain: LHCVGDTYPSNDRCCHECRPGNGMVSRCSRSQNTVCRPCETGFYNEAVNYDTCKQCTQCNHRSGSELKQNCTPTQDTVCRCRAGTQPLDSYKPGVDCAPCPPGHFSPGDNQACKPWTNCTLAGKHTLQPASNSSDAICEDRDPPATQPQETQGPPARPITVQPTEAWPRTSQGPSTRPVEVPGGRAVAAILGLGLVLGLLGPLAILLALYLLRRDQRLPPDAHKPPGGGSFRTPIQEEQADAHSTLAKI

[2] = target: T2, human OX40 with mouse CRD3 (human with mouse CRD3, UniProt P43489 29-277); test: as above
T2 construct: on ExpiCHO-S cells; also called OX40-CRD3mm; Shuffle 3
T2 chain: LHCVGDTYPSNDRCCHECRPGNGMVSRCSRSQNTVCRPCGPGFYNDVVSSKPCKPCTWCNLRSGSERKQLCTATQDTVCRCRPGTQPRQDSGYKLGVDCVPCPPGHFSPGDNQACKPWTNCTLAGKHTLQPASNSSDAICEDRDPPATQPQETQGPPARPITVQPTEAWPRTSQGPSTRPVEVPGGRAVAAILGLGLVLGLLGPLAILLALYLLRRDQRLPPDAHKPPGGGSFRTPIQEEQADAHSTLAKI

[3] = target: T3, human FcγRIa expressed on cells (human, UniProt P12314 16-374); test: flow cytometry, FcγRIa-expressing human monocyte-derived M2c-like macrophages, 15 min
T3 construct: whole, on cells; also called FcγR1a; CD64

[4] = target: T4, human OX40 with mouse CRD1 (human with mouse CRD1, UniProt P43489 29-277); test: flow cytometry, transfected ExpiCHO-S cells, gMFI (PE)
T4 construct: on ExpiCHO-S cells; also called OX40-CRD1mm; Shuffle 1
T4 chain: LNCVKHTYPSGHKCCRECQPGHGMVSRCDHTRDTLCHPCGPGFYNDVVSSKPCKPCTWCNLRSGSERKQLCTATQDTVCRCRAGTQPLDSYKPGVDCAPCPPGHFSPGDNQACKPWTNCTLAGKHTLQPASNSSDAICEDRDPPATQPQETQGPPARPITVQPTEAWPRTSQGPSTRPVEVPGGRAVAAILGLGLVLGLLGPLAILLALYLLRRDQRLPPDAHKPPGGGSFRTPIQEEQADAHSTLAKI

[5] = target: T5, human OX40 expressed on cells (human, UniProt P43489 29-277); test: flow cytometry, OX40-transfected HEK293F cells, gMFI (PE)
T5 construct: also called CD134; TNFRSF4
T5 sequence: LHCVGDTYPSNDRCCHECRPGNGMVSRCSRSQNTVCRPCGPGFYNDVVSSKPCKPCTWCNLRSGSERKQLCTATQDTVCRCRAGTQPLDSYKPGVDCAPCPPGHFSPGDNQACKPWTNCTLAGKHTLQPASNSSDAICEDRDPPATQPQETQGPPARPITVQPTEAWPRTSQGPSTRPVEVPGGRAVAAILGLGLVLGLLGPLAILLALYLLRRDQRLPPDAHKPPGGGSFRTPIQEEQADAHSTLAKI
Description: (§1) Transfected cells were seeded in 96-well plates (30,000 cells/well; ThermoFisher, cat. no. 163320) for sequential incubations, with washing steps in between using fluorescence-activated cell sorting (FACS) buffer 1 (phosphate buffered saline [PBS; Lonza, cat. no. BE17-517Q] supplemented with 0.1% bovine serum albumin [BSA; Roche, cat. no. 10735086001] and 0.02% sodium azide [NaN₃; Bio-World, cat. no. 41920044-3]) supplemented with 2 mM ethylenediaminetetraacetic acid (EDTA; Sigma-Aldrich, cat. no. 03690). […] Cells were then washed using EDTA-supplemented FACS buffer 1, resuspended in a 30 μL solution of viability marker ToPro-3 (Invitrogen, cat. no. T3605, diluted 1:10,000) in EDTA-supplemented FACS buffer 1, and subsequently analyzed on an iQue® 3 flow cytometer (Satorius). Data were analyzed using FlowJo software and were visualized using GraphPad Prism.

[6] = target: T6, cynomolgus monkey OX40 expressed on HEK293F cells (cynomolgus monkey (Macaca fascicularis), UniProt P43489 29-277 (human entry)); test: as above
T6 construct: full-length entry
T6 chain: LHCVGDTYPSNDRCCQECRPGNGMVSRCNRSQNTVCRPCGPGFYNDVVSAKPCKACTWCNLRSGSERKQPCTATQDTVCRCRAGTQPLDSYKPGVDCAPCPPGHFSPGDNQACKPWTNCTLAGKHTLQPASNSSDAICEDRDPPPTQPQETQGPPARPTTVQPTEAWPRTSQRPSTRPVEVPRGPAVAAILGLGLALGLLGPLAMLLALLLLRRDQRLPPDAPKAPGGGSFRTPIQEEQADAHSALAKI
Description: as §1

[7] = target: T7, mouse OX40 expressed on ExpiCHO-S cells (mouse, UniProt P47741 20-272); test: flow cytometry, transfected ExpiCHO-S cells, gMFI (PE)
T7 construct: full-length entry; also called OX40mm; wild-type mouse OX40
T7 sequence: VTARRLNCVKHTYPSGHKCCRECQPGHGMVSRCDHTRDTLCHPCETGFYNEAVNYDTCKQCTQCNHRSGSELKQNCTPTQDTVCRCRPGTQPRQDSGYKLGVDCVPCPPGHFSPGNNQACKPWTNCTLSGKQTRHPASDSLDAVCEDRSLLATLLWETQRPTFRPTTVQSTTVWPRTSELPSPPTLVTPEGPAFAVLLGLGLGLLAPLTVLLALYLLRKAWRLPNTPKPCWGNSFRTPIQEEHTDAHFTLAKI

[8] = target: T8, human OX40 with mouse CRD4 (human with mouse CRD4, UniProt P43489 29-277); test: as above
T8 construct: on ExpiCHO-S cells; also called OX40-CRD4mm; Shuffle 4
T8 chain: T5 sequence with D109N, A122S, H125Q, L127R, Q128H, N132D, S134L, I137V
Description: The four shuffle constructs, as well as wild-type human and mouse OX40 were transiently expressed on ExpiCHO-S cells using the ExpiFectamine™ CHO Transfection Kit (ThermoFisher, cat. no. A29131), according to the manufacturer's protocol. […] Next, cells were washed twice in FACS buffer 1, were resuspended in a 30 μL solution of viability marker ToPro-3 (Invitrogen, cat. no. T3605, diluted 1:10,000) in FACS buffer 1 supplemented with 2 mM EDTA, and were analyzed on an iQue Screener Plus (Intellicyt Corporation, USA). Data were analyzed using FlowJo software and visualized using GraphPad Prism.

[9] = target: T5, human OX40 expressed on cells; test: flow cytometry, human T cells activated 2 days with anti-CD3/CD28 beads, 2 µg/mL sOX40L, anti-mouse Fc detection
Description: Stimulated PBMCs were pelleted, resuspended in FACS buffer 2 (DPBS with 2% heat-inactivated FBS [Sigma-Aldrich, cat. no. F7524] and 2 mM EDTA [Sigma-Aldrich, cat. no. 03690]), and seeded (100,000 cells/well) in round-bottom 96-well plates (VWR International GmbH, cat. no. 734-197). […] Next, cells were washed twice in FACS buffer, and incubated with 30 μL of the antibody panel described in Table 11 diluted in FACS buffer 2 containing 1:1,500 Fixable Viability Stain eFluor 780 at 4° C. for 20 min, protected from light. The cells were subsequently washed twice with 120-150 μL FACS buffer 2 and measured on a BD FACSCelesta flow cytometer using a BD High Throughput sampler and subsequent analysis was done using FlowJo software.

[10] = target: T9, His-tagged human recombinant FcγRIIIa 176-Val (Sino Biological, cat. no. 10389-H27H1-B) (human, UniProt P08637 17-208); test: SPR, His-tagged FcγR captured on anti-His chip, antibody injected
T9 construct: also called FcγRIIIa[V]
Description: (§2) Biacore Series S Sensor Chips CM5 (Cytiva, cat. no. 29104988) were covalently coated with anti-His antibody using amine-coupling and His capture kits (Cytiva, cat. no. BR100050 and cat. no. 29234602) according to the manufacturer's instructions. […] After three start-up cycles of HBS-EP+ buffer, antibody samples were injected for 12 cycles per sample to generate binding curves using antibody concentration ranges of 0 to 3,000 nM for FcγRIa and 0 to 10,000 nM for the other FcγRs.
(§3) Dissociation from the anti-His-coated surface was performed by regeneration of the surface using 10 mM Glycine-HCl pH 1.5 (Cytiva, cat. no. BR100354).

[11] = target: T10, His-tagged human recombinant FcγRIIa 167-Arg (Sino Biological, cat. no. 10374-H27H) (human, UniProt P12318 34-218); test: as above
T10 construct: also called FcγRIIa[R]
T10 sequence (looked up): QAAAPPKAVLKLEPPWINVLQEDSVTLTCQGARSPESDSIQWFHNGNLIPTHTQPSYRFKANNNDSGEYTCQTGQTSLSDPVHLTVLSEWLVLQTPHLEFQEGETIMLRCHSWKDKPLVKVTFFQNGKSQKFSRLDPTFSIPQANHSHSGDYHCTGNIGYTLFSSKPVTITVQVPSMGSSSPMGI
Description: as §2, §3

[12] = target: T11, His-tagged human recombinant FcγRIIb (Sino Biological, cat. no. 10259-H27H-B) (human, UniProt P31994 43-217); test: as above
T11 construct: also called FcγRII2b [sic]
T11 sequence (looked up): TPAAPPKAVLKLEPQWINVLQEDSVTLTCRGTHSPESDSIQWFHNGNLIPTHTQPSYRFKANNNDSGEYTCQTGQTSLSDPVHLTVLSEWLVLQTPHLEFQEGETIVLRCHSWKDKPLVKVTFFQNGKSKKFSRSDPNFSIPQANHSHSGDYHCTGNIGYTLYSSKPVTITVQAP
Description: as §2, §3

[13] = target: His-tagged human recombinant FcγRIa (Sino Biological, cat. no. 10256-H08S-B) (human, UniProt P12314 16-288); test: as above
Description: as §2, §3

[14] = target: T12, His-tagged human recombinant FcγRIIIa 176-Phe (Sino Biological, cat. no. 10389-H27H) (human, UniProt P08637 17-208); test: as above
T12 construct: also called FcγRIIIa[F]
Description: as §2, §3

[15] = target: T13, His-tagged human recombinant FcγRIIa 167-His (Sino Biological, cat. no. 10374-H08H1) (human, UniProt P12318 34-218); test: as above
T13 construct: also called FcγRIIa[H]
T13 sequence (looked up): T10 sequence (looked up) with R134H
Description: as §2, §3

Measured: binding result

T12 sequence (P08637 17-208 limits assumed): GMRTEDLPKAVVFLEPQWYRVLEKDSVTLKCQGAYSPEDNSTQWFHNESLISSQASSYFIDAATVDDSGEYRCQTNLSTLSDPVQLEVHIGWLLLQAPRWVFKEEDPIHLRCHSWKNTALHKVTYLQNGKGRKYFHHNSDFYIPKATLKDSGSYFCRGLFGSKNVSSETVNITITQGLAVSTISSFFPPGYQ
Chain of His-tagged human recombinant FcγRIa (Sino Biological, cat. no. 10256-H08S-B) (P12314 16-288 limits assumed, stated change not applied): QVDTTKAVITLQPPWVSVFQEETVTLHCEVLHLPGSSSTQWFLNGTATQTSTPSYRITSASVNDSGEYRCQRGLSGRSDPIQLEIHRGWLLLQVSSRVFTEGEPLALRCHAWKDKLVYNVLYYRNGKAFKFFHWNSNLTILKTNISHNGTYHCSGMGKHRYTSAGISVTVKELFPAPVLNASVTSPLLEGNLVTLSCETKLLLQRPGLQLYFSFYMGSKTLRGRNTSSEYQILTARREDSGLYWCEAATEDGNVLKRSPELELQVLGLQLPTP
T9 sequence (P08637 17-208 F176V limits assumed): as the sequence (P08637 17-208 limits assumed) above, with F160V counted along it
T3 sequence (P12314 16-374): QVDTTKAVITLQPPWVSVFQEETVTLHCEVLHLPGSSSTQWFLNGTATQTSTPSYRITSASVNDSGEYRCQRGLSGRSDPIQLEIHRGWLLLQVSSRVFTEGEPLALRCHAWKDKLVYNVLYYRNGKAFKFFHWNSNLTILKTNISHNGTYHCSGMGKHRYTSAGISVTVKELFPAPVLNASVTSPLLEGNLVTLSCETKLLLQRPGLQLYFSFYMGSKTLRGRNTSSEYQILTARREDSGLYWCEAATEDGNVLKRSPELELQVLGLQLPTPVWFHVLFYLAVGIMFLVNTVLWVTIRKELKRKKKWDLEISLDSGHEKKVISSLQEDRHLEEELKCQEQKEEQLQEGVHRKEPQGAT

B1: IgG1-b12-RR (antibody)
heavy: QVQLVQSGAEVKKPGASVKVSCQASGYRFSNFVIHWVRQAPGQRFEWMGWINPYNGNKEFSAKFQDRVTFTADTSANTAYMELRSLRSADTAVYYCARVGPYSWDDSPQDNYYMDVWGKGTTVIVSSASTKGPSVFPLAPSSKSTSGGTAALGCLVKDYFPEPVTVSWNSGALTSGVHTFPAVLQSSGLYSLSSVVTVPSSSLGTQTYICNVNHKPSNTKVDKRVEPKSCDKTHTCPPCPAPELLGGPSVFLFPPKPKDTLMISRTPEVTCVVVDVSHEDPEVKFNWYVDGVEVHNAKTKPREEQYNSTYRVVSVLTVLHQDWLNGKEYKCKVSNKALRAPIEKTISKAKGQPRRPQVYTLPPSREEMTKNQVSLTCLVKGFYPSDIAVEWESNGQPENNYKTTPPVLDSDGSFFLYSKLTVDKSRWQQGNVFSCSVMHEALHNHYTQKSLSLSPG
VL: EIVLTQSPGTLSLSPGERATFSCRSSHSIRSRRVAWYQHKPGQAPRLVIHGVSNRASGISDRFSGSGSGTDFTLTITRVEPEDFALYYCQVYGASSYTFGQGTKLERK
notes: also called IgG1-b12-P329R-E345R
no binding (tested: 10 µg/mL): [3]
no binding (tested: 50 µg/mL): [1] | [2] | [4] | [5] | [6] | [7] | [8]

B2: murine Fc-tagged human sOX40L (Sino Biological, cat. no. 13127-H04H) (Fc fusion, UniProt P23510 51-183, looked up)
chain: QVSHRYPRIQSIKVQFTEYKKEKGFILTSQKEDEIMKVQNNSVIINCDGFYLISLKGYFSQEVNISLHYQKDEEPLFQLKKVRSVNSLMVASLTYKDKVYLNVTTDNTSLDDFHVNGGELILIHQNPGEFCVL
notes: bought protein; also called soluble OX40L; not shown: murine Fc tag
binds: [9]

B3: IgG1-CD134-003-HC6LC2-E345R (antibody)
heavy: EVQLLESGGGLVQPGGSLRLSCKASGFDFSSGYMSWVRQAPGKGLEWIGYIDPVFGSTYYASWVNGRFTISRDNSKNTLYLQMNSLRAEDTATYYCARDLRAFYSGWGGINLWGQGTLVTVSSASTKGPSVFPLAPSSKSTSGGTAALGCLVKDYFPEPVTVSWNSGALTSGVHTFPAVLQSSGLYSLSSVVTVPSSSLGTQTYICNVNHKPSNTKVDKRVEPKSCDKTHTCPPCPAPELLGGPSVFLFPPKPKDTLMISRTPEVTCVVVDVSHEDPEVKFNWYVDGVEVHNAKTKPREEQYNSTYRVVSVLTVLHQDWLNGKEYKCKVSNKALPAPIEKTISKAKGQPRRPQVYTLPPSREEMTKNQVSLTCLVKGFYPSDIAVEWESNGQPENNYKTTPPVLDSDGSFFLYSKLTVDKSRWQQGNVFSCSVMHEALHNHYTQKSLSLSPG
light: AAVLTQSPSSLSASVGDRVTITCQSSQIVVNNNFLSWYQQKPGKAPKLLIYDASNLASGVPDRFSGSGSGTDFTFTISSLQPEDIATYYCLGGYDDDAENAFGGGTKVEIKRTVAAPSVFIFPPSDEQLKSGTASVVCLLNNFYPREAKVQWKVDNALQSGNSQESVTEQDSKDSTYSLSSTLTLSKADYEKHKVYACEVTHQGLSSPVTKSFNRGEC
notes: also called variant of IgG1-CD134-003-HC6LC2-RR without Fc-inertness mutation; copies: 2 + 2
binds: [10] | [11] | [12] | [13] | [14] | [15]
